Data reported in patent US20180030137A1 (ADURO BIOTECH HOLDINGS EUROPE B V, published 2018).
Numbering of substitutions follows the chain as printed. Numbers in names are those of the source.

B1: H4H7798N (antibody, from another filing, human IgG4, V domains shown)
VH: EVQLLESGGVLVQPGGSLRLSCAASGFTFSNFGMTWVRQAPGKGLEWVSGISGGGRDTYFADSVKGRFTISRDNSKNTLYLQMNSLKGEDTAVYYCVKWGNIYFDYWGQGTLVTVSS
VL: DIQMTQSPSSLSASVGDSITITCRASLSINTFLNWYQQKPGKAPNLLIYAASSLHGGVPSRFSGSGSGTDFTLTIRTLQPEDFATYYCQQSSNTPFTFGPGTVVDFRR
B2: 5C4 (antibody, V domains shown)
VH: QVQLVQSGAEVKKPGSSVKVSCKASGFTFTTYYISWVRQAPGQGLEYLGYINMGSGGTNYNEKFKGRVTITADKSTSTAYMELSSLRSEDTAVYYCAILGYFDYWGQGTMVTVSS
VL: DVVMTQSPLSLPVTLGQPASISCRSSQSLLDSDGQTYLYWFQQRPGQSPRRLIYLVSTLGSGVPDRFSGSGSGTDFTLKISRVEAEDVGVYYCMQLTHEPYTFGQGTKLEIK
B3: hPD1.29H5_A9P_I28T_T31S_L4 (antibody, V domains shown)
VH: EVQLVQSGPEVKKPGASVKVSCKASGYTFTSYYIHWVKQAPGKGLEWIGWIFPGDVSTQYNEKFQDKATITVDKSASTAYMQLSSLRSEDTAVYYCTREAYDYAVYWGQGTLVTVSS
VL: DIQMTQAPSSLSASVGDRVTITCKASQNVDTNVAWFQQKPGKAPKSLIFSASYRYSGVPSRFSGSGSGTDFTLTISSLQPEDFATYYCQQYNNYPFTFGGGTKLEIK
notes: Mutant of hPD1.29H5L4 (human IgG4 S241P kappa format of the parent)
B4: hPD1.29H5_I28T_T31S_L4 (antibody, V domains shown)
VH: B3 VH with P9A
VL: B3 VL
notes: as for B3
B5: hPD1.29H5_A9P_L4 (antibody, V domains shown)
VH: B3 VH with T28I, S31T
VL: B3 VL
notes: as for B3
B6: hPD1.29H5_A9P_K12V_L4 (antibody, V domains shown)
VH: B3 VH with K12V, T28I, S31T
VL: B3 VL
notes: as for B3
B7: hPD1.29H5_K12V_I28T_T31S_L4 (antibody, V domains shown)
VH: B3 VH with P9A, K12V
VL: B3 VL
notes: as for B3
B8: hPD1.29H5_T31D_L4 (antibody, V domains shown)
VH: B3 VH with P9A, T28I, S31D
VL: B3 VL
notes: as for B3
B9: hPD1.29H5_I28D_L4 (antibody, V domains shown)
VH: B3 VH with P9A, T28D, S31T
VL: B3 VL
notes: as for B3
B10: hPD1.29H5_A9P_K12V_I28T_T31S_L4 (antibody, V domains shown)
VH: B3 VH with K12V
VL: B3 VL
notes: as for B3
B11: hPD1.29H5_Y32D_L4 (antibody, V domains shown)
VH: B3 VH with P9A, T28I, S31T, Y32D
VL: B3 VL
notes: IgG4 S241P kappa format of the parent
B12: hPD1.29H5_K12V_L4 (antibody, V domains shown)
VH: B3 VH with P9A, K12V, T28I, S31T
VL: B3 VL
notes: as for B3
B13: hPD1.29H5_T30D_L4 (antibody, V domains shown)
VH: B3 VH with P9A, T28I, T30D, S31T
VL: B3 VL
notes: as for B3
B14: hPD1.29H5_I28D_T30D_L4 (antibody, V domains shown)
VH: B3 VH with P9A, T28D, T30D, S31T
VL: B3 VL
notes: as for B3
B15: hPD1.29H5_I28D_T31D_L4 (antibody, V domains shown)
VH: B3 VH with P9A, T28D, S31D
VL: B3 VL
notes: as for B3
B16: hPD1.29H5_I28D_Y32D_L4 (antibody, V domains shown)
VH: B3 VH with P9A, T28D, S31T, Y32D
VL: B3 VL
notes: as for B11

What follows are binders tested against Human PD-1 (Swiss-Prot entry Q15116), full length, on cells (human) (UniProt Q15116) (assay: CELISA on CHO-K1.hPDCD1 cells; blocking of biotinylated hPD-L2 Fc).
Chain of Human PD-1 (Swiss-Prot entry Q15116), full length, on cells (human) (Q15116 21-288): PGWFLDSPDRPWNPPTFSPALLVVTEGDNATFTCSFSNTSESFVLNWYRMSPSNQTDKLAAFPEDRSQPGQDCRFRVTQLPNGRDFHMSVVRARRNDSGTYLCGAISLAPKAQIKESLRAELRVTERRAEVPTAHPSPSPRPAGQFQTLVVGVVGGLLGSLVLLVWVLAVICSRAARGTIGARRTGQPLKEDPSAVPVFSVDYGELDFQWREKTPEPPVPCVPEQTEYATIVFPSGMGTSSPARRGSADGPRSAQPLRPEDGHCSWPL

| IC50 | Binder |
| --- | --- |
| 0.57 nM | B1 |

These binders were tested against Human PD-1 (Swiss-Prot entry Q15116), full length, on cells (human) (UniProt Q15116) (assay: CELISA on CHO-K1.hPDCD1 cells; blocking of biotinylated hPD-L1 Fc).

| IC50 | Binder |
| --- | --- |
| 0.45 nM | B1 |

The binders below were run against Human PD-1 (Swiss-Prot entry Q15116), full length, on cells (human) (UniProt Q15116) (assay: not given).

| IC50; NFAT-luciferase signal (RLU) of Jurkat cells expressing human PD-1, with CHO cells expressing hPD-L1 | Binder |
| --- | --- |
| 7.27 nM | B1 |

What follows are binders tested against T1, Human PD-1 (Swiss-Prot entry Q15116), full length, on cells (human, UniProt Q15116 21-288) (assay: CELISA on CHO-K1.hPDCD1 cells; blocking of biotinylated hPD-L2 Fc).
T1 construct: Full length open reading frame of hPD-1 stably expressed on CHO-K1 cells; also endogenous PD-1 on CD3/CD28-stimulated human CD3+ T cells and PD-1 on transfected Jurkat cells; also called hPD-1; hPDCD1
T1 sequence (Q15116 21-288): as above
Protocol: Parental CHO-K1 or CHO-K1.hPDCD1 cells were seeded in tissue culture plates and incubated for 72 hours at 37° C. in culture medium. […] Cells were then washed three times with PBST followed by addition of Streptavidin-HRP conjugate on the cells, which was incubated for 1 hour at 37° C. […] Reactions were stopped with 100 al 0.5 M H₂SO₄ and absorbances were read at 450 and 610 nm. […] Calculated IC50 values represent the concentration at which half of the inhibition is observed.

| IC50 | Binder |
| --- | --- |
| 0.58 nM | B2 |

Each binder was assayed against T1, Human PD-1 (Swiss-Prot entry Q15116), … (assay: cell-based or functional assay).

| IC50; NFAT-luciferase signal (RLU) of Jurkat cells expressing human PD-1, with CHO cells expressing hPD-L1 | Binder |
| --- | --- |
| 5.79 nM | B2 |

These binders were tested against T2, hPD-1/Fc fusion protein (R&D Systems) (human, UniProt Q15116 25-167) (assay: BLI (Octet RED96), hPD-1/Fc amine-coupled, IgG in solution, 1:1 global fit).
T2 construct: Bought reagent; also called Recombinant hPD-1/Fc; not shown: Fc part of the bought fusion protein
T2 sequence (Q15116 25-167 limits assumed): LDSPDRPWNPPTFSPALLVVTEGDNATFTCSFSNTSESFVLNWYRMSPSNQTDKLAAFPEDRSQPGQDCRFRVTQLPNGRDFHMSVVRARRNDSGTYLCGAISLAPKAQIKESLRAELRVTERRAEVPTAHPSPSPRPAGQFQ
Protocol: This assay was, performed by coupling hPD-1/Fc fusion protein (R&D Systems) to amine-reactive second generation biosensors (Fortebio) using standard amine chemistry. […] Amine-reactive biosensors were pre-wet by immersing them in wells containing 0.1M MES pH=5.5 for 10 minutes. The biosensors were then activated using a 0.1M NHS/0.4M EDC mixture for 5 minutes. hPD-1/Fc fusion protein was coupled by immersing the biosensors in a solution of 12 ug/mL hPD-1/Fc in 0.1 M MES for 7.5 minutes. The biosensor surface was quenched using a solution of 1M ethanolamine for 5 minutes. Biosensors were equilibrated in Octet kinetics buffer (ForteBio) for 5 minutes. […] Dissociation was measured after transfer of the biosensors into kinetics buffer and monitoring of the interferometry signal for 45 minutes. The assay was run with a plate temperature of 30° C. The observed on and off rates (kobs and kd) were fit using a 1:1 binding global fit model comprising all concentrations tested, and the equilibrium binding constant KD was calculated.

| Kd | koff | kon | Binder |
| --- | --- | --- | --- |
| 0.011 nM | 1.2e-05 s⁻¹ | 1.1e+06 M⁻¹ s⁻¹ | B1 |
| 0.014 nM | 2.9e-05 s⁻¹ | 2.1e+06 M⁻¹ s⁻¹ | B2 |

The binders below were run against T2, hPD-1/Fc fusion protein (R&D Systems) (assay: BLI competition: second antibody on hPD-1/Fc held by immobilised hPD1.29H5L4 (competitor: hPD1.29H5L4)).

| Binding (nm) | Binder |
| --- | --- |
| 0.014 nm | B1 |

What follows are binders tested against T1, Human PD-1 (Swiss-Prot entry Q15116), … (assay: CELISA on CHO-K1.hPDCD1 cells).
Protocol: (§1) To further characterize these mutant hPD-1 antibodies they were tested for binding to hPD-1 in CELISA format using CHO-K1 cells (American Type Culture Collection, Manassas, Va.), stably transfected with cDNA encoding the full length open reading frame of hPDCD1 (hPD-1), subcloned into the pCI-neo vector (Promega). Parental CHO-K1 or CHO-K1.hPDCD1 cells were seeded in culture medium (DMEM-F12 (Gibco) with 10% Fetal Bovine Serum (Hyclone) and Pen/Strep (Gibco)) in tissue culture plates and incubated for 48 hours at 37° C. Subsequently culture medium was removed and cells were incubated for 1 hour at 37° C. with the mutant hPD-1 antibodies (10 μg/ml (=66 nM) and dilutions thereof). Next, cells were washed with Phosphate-Buffered Saline/0.05% Tween (PBST) and incubated for 1 hour at 37° C. with Goat-anti-human IgG-HRP (Southern Biotech). Subsequently, cells were washed 3 times with PBST and anti-hPD1 immunoreactivity was visualized with 100 al TMB Stabilized Chromagen (Invitrogen). Reactions were stopped with 100 al 0.5 M H2SO4 and absorbances were read at 450 and 610 nm. […] Blockade of hPD-L1 binding by the mutant hPD-1 antibodies was tested in CELISA format. Parental CHO-K1 or CHO-K1.hPDCD1 cells were seeded in tissue culture plates and incubated for 72 hours at 37° C. in culture medium. Subsequently culture medium was removed and cells were incubated for 1 hour with the mutant hPD-1 antibodies (10 μg/ml (=66 nM) and dilutions thereof) at 37° C. […] Cells were then washed three times with PBST followed by addition of Streptavidin-HRP conjugate on the cells, which was incubated for 1 hour at 37° C. […] Reactions were stopped with 100 al 0.5 M H2SO4 and absorbances were read at 450 and 610 nm. Calculated IC50 values in Table 12 for the blockade of hPD-L1 represent the concentration at which half of the inhibition is observed.

| EC50 | Binder |
| --- | --- |
| 0.3 nM | B3 |
| 0.3 nM | B4 |
| 0.4 nM | B5 |
| 0.4 nM | B6 |
| 0.3 nM | B7 |
| 0.4 nM | B8 |
| 0.3 nM | B9 |
| 0.3 nM | B10 |
| 0.3 nM | B11 |
| 0.4 nM | B12 |
| 0.3 nM | B13 |
| 0.4 nM | B14 |
| 0.4 nM | B15 |
| 0.4 nM | B16 |

These binders were tested against T1, Human PD-1 (Swiss-Prot entry Q15116), … (assay: CELISA on CHO-K1.hPDCD1 cells; blocking of biotinylated hPD-L1 Fc).
Protocol: as §1

| IC50 | Binder |
| --- | --- |
| 1.2 nM | B3 |
| 1.1 nM | B4 |
| 1.4 nM | B5 |
| 1.3 nM | B6 |
| 1.2 nM | B7 |
| 1.7 nM | B8 |
| 1.6 nM | B9 |
| 1.2 nM | B10 |
| 1.4 nM | B11 |
| 1.4 nM | B12 |
| 1.6 nM | B13 |
| 1.6 nM | B14 |
| 1.4 nM | B15 |
| 1.3 nM | B16 |

Biological target: T1, Human PD-1 (Swiss-Prot entry Q15116), …
Experiment: as above
Remark: another data set of the same source
Protocol: (§2) To further characterize these mutant hPD-1 antibodies they were tested for binding to hPD-1 in CELISA format using CHO-K1 cells (American Type Culture Collection, Manassas, Va.), stably transfected with cDNA encoding the full length open reading frame of hPDCD1 (hPD-1), subcloned into the pCI-neo vector (Promega). Parental CHO-K1 or CHO-K1.hPDCD1 cells were seeded in culture medium (DMEM-F12 (Gibco) with 10% Fetal Bovine Serum (Hyclone) and Pen/Strep (Gibco)) in tissue culture plates and incubated for 48 hours at 37° C. Subsequently culture medium was removed and cells were incubated for 1 hour at 37° C. with the mutant hPD-1 antibodies (10 μg/ml (=66 nM) and dilutions thereof). Next, cells were washed with Phosphate-Buffered Saline/0.05% Tween (PBST) and incubated for 1 hour at 37° C. with Goat-anti-human IgG-HRP (Southern Biotech). Subsequently, cells were washed 3 times with PBST and anti-hPD1 immunoreactivity was visualized with 100 al TMB Stabilized Chromagen (Invitrogen). Reactions were stopped with 100 al 0.5 M H2SO4 and absorbances were read at 450 and 610 nm. […] Blockade of hPD-L1 binding by the mutant hPD-1 antibodies was tested in CELISA format. […] Reactions were stopped with 100 al 0.5 M H2SO4 and absorbances were read at 450 and 610 nm. Calculated IC50 values in Table 12 for the blockade of hPD-L1 represent the concentration at which half of the inhibition is observed.

| IC50 | Binder |
| --- | --- |
| 0.49 nM | B2 |

The binders below were run against Human PD-1 (Swiss-Prot entry Q15116), full length, on cells (human) (UniProt Q15116) (assay: CELISA on CHO-K1.hPDCD1 cells).

| EC50 | Binder |
| --- | --- |
| 0.1 nM | B1 |

Biological target: T1, Human PD-1 (Swiss-Prot entry Q15116), …
Experiment: CELISA on CHO-K1.hPDCD1 cells
Remark: another data set of the same source
Protocol: as §2

| EC50 | Binder |
| --- | --- |
| 0.08 nM | B2 |
